Measured values reported in the supplement of paper PMC7125110.
± gives the standard error. For some assays here: Variants at the floor of the assay were thinned out.

B1: glmS ribozyme (parent)
chain: AUAAAAGCGCCAGAACUACAGAAAUGUAGUUGACGAGGAGGAGGUUUAUCGAAUUUUCGGCGGAUGCCUCCAAA

Columns and labels:
Conditions in all cases: with glucosamine-6-phosphate
glucosamine-6-phosphate [1] = variants of: B1; test: kcat; higher = faster cleavage; RNA array
Outline: (§1)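 A hybridised Cy3 probe tracked barcoded ribozyme variants, transcribed in situ by E. coli RNA polymerase on sequenced MiSeq chips, at 37 °C. The variants received 40 μM to 10 mM glucosamine-6-phosphate in HEPES/KCl/Mg(OAc)2 buffer. kobs came from decay fits and kcat and KM from weighted Michaelis–Menten fits.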

glucosamine-6-phosphate [2] = variants of: B1; test: KM; higher = weaker cofactor use; RNA array
Outline: as §1

glucosamine-6-phosphate [3] = variants of: B1; test: self-cleavage kobs at 640 uM GlcN6P; higher = faster cleavage; RNA array
Outline: as §1

glucosamine-6-phosphate [4] = variants of: B1; test: self-cleavage kobs at 2500 uM GlcN6P; higher = faster cleavage; RNA array
Outline: as §1

glucosamine-6-phosphate [5] = variants of: B1; test: self-cleavage kobs at 10000 uM GlcN6P; higher = faster cleavage; RNA array
Outline: as §1

glucosamine-6-phosphate [6] = variants of: B1; test: self-cleavage kobs at 40 uM GlcN6P; higher = faster cleavage; RNA array
Outline: as §1

glucosamine-6-phosphate [7] = variants of: B1; test: self-cleavage kobs at 160 uM GlcN6P; higher = faster cleavage; RNA array
Outline: as §1

Variant	kcat (glucosamine-6-phosphate [1])	KM (glucosamine-6-phosphate [2])	self-cleavage kobs at 640 uM GlcN6P (glucosamine-6-phosphate [3])	self-cleavage kobs at 2500 uM GlcN6P (glucosamine-6-phosphate [4])	self-cleavage kobs at 10000 uM GlcN6P (glucosamine-6-phosphate [5])	self-cleavage kobs at 40 uM GlcN6P (glucosamine-6-phosphate [6])	self-cleavage kobs at 160 uM GlcN6P (glucosamine-6-phosphate [7])
C11A C71U	0.000122 ± 1.1e-05 s⁻¹	451 ± 210 µM	7.03e-05 ± 1.1e-05 s⁻¹	0.000147 ± 2.3e-05 s⁻¹	0.000113 ± 8e-06 s⁻¹		
C11U G40C C71U	0.000141 ± 1.8e-06 s⁻¹	1450 ± 65 µM	4.4e-05 ± 1.6e-05 s⁻¹	8.73e-05 ± 2.5e-05 s⁻¹	0.000124 ± 1.7e-05 s⁻¹		
G9A U55A	2.49e-05 ± 5.6e-07 s⁻¹	1410 ± 200 µM			2.18e-05 ± 9.9e-06 s⁻¹		
C11A U30A C50U	2.21e-05 ± 3.2e-06 s⁻¹						
A6U A15U	3.81e-05 ± 2.5e-06 s⁻¹	1260 ± 360 µM		2.31e-05 ± 8.8e-06 s⁻¹	3.44e-05 ± 7e-06 s⁻¹		
C8A C61U G66A	< 1e-05 s⁻¹		< 1e-05 s⁻¹	< 1e-05 s⁻¹			
C10U C11U	3.12e-05 ± 1.5e-05 s⁻¹					< 1e-05 s⁻¹	< 1e-05 s⁻¹
C8A C70A	1.28e-05 ± 2.3e-06 s⁻¹						
C8A C70U	< 1e-05 s⁻¹						< 1e-05 s⁻¹
C11A G66U	< 1e-05 s⁻¹	58.7 ± 26 µM	< 1e-05 s⁻¹	< 1e-05 s⁻¹		< 1e-05 s⁻¹	
C10G A39G	< 1e-05 s⁻¹						< 1e-05 s⁻¹
C10U U47C U56G C68U U69A	< 1e-05 s⁻¹	429 ± 190 µM	< 1e-05 s⁻¹		< 1e-05 s⁻¹		
C11A U57A	< 1e-05 s⁻¹						
C11U A14C	0.000773 ± 0.00026 s⁻¹		0.000151 ± 2.1e-05 s⁻¹	0.000275 ± 5.2e-05 s⁻¹	0.000712 ± 8.5e-05 s⁻¹		8.34e-05 ± 1.7e-05 s⁻¹
C10A A42C	< 1e-05 s⁻¹	2410 ± 820 µM	< 1e-05 s⁻¹			< 1e-05 s⁻¹	< 1e-05 s⁻¹
C11G A14U C70A	3.61e-05 ± 1.3e-05 s⁻¹						
G9U U31C	< 1e-05 s⁻¹		< 1e-05 s⁻¹		< 1e-05 s⁻¹		
C10U C70U	2.53e-05 ± 1.3e-06 s⁻¹	777 ± 240 µM		1.83e-05 ± 8e-06 s⁻¹	2.38e-05 ± 7e-06 s⁻¹		
C10U C70G	2.35e-05 ± 4.9e-06 s⁻¹			2.76e-05 ± 1.3e-05 s⁻¹			
C11U G38A G41A A42G	1.14e-05 ± 5.7e-06 s⁻¹					< 1e-05 s⁻¹	< 1e-05 s⁻¹
A6U G40U	2.6e-05 ± 7e-07 s⁻¹	4450 ± 330 µM			1.8e-05 ± 7.6e-06 s⁻¹		

Variant	kcat (glucosamine-6-phosphate [1])	KM (glucosamine-6-phosphate [2])	self-cleavage kobs at 640 uM GlcN6P (glucosamine-6-phosphate [3])	self-cleavage kobs at 2500 uM GlcN6P (glucosamine-6-phosphate [4])	self-cleavage kobs at 10000 uM GlcN6P (glucosamine-6-phosphate [5])	self-cleavage kobs at 40 uM GlcN6P (glucosamine-6-phosphate [6])	self-cleavage kobs at 160 uM GlcN6P (glucosamine-6-phosphate [7])
G7A A14C	1.34e-05 ± 5.9e-06 s⁻¹					< 1e-05 s⁻¹	
C10U G38U	< 1e-05 s⁻¹						
C11U C71G	0.000109 ± 9.1e-06 s⁻¹	408 ± 150 µM	7.07e-05 ± 1.2e-05 s⁻¹	8.38e-05 ± 1.2e-05 s⁻¹	0.000111 ± 1.2e-05 s⁻¹		
C10G G60C	0.00245 ± 0.00047 s⁻¹	2180 ± 610 µM	0.000733 ± 8.9e-05 s⁻¹	0.00117 ± 0.00023 s⁻¹	0.00198 ± 0.00023 s⁻¹	3.56e-05 ± 6.7e-06 s⁻¹	0.000167 ± 2.9e-05 s⁻¹
C10G G60U	4.68e-05 ± 1.2e-05 s⁻¹				2.05e-05 ± 1e-05 s⁻¹	< 1e-05 s⁻¹	< 1e-05 s⁻¹
A6U A42G	0.000505 ± 0.00011 s⁻¹	3730 ± 1400 µM	8.54e-05 ± 1.6e-05 s⁻¹	0.000156 ± 5.1e-05 s⁻¹	0.00038 ± 6e-05 s⁻¹		
C11A A53G	0.000202 ± 9.2e-06 s⁻¹	2130 ± 240 µM	4.47e-05 ± 1e-05 s⁻¹	0.000112 ± 1.2e-05 s⁻¹	0.000164 ± 1.8e-05 s⁻¹		
G9U C61G	0.000192 ± 1.7e-05 s⁻¹	2350 ± 460 µM	4.57e-05 ± 1.2e-05 s⁻¹	9.21e-05 ± 1.7e-05 s⁻¹	0.00016 ± 2.5e-05 s⁻¹	< 1e-05 s⁻¹	
C8U C58U C68A	2.49e-05 ± 7.3e-06 s⁻¹			< 1e-05 s⁻¹			
C11G C50G	0.000265 ± 6.8e-05 s⁻¹		0.000352 ± 7.5e-05 s⁻¹	0.000209 ± 5e-05 s⁻¹	0.000187 ± 9.3e-05 s⁻¹	6.35e-05 ± 1.4e-05 s⁻¹	0.00024 ± 4.8e-05 s⁻¹
A6U G13C C70G	2.43e-05 ± 8.6e-06 s⁻¹						
G7U C67U	< 1e-05 s⁻¹			< 1e-05 s⁻¹		< 1e-05 s⁻¹	< 1e-05 s⁻¹
G7U C67G	< 1e-05 s⁻¹			< 1e-05 s⁻¹			
G7U G66U C70G	< 1e-05 s⁻¹			< 1e-05 s⁻¹			
C10G G59A	< 1e-05 s⁻¹					< 1e-05 s⁻¹	< 1e-05 s⁻¹
C10U A14C U30A G35A G38A	< 1e-05 s⁻¹						
C11U G59U	0.000274 ± 3.6e-06 s⁻¹	1920 ± 51 µM	6.88e-05 ± 6.5e-06 s⁻¹	0.000155 ± 1.6e-05 s⁻¹	0.00023 ± 1.9e-05 s⁻¹		
A6U U30C U31G	9.88e-05 ± 6.8e-06 s⁻¹	7220 ± 1100 µM			5.74e-05 ± 1.6e-05 s⁻¹		
C10U A53U	1.55e-05 ± 3.9e-06 s⁻¹						
C10G G37U	< 1e-05 s⁻¹						
